Reference: patent US20190248882A1 (published 2019)

T1: human ANG-2 (R&D Systems) (UniProt O15123 68-496, biotinylated in the Tie-2 competition ELISA (site not stated))
T1 chain: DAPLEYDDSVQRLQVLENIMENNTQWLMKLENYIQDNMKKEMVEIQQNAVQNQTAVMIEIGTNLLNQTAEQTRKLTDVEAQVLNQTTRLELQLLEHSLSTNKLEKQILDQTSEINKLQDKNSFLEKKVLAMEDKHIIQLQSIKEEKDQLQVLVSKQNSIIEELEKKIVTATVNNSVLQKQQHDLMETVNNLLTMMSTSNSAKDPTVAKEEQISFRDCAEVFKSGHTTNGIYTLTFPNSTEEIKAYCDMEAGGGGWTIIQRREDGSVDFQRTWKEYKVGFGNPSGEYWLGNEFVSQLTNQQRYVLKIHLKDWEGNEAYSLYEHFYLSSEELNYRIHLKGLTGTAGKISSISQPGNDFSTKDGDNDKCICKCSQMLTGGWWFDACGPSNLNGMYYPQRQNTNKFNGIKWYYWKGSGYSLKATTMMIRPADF


How the values were obtained:
[1] = biological target: T1, human ANG-2 (R&D Systems); assay: inhibition of ANG-2 binding to Tie-2 on HEK293 cells
[2] = biological target: A33A8 VH; assay: BLI (Octet); VH domain alone

Row | IC50 [1] | Kd [2] | Binder
1 | 0.295 nM | – | A33A8 human anti-ANG-2 HCAb (antibody, V domains shown) VH: QVQLVESGGGLVQPGGSLRLSCAASGFTFSSYWMHWVRQAPGKGLVWVSRINSDGSSTSYADSVKGRFTISRDNAKNTLYLQMNSLRAEDTAVYYCAREGYSSGGQFDYWGQGTLVTVSS
2 | – | < 0.001 nM | ANG-2 (ligand, biotinylated in the Tie-2 competition ELISA (site not stated)) DAPLEYDDSVQRLQVLENIMENNTQWLMKLENYIQDNMKKEMVEIQQNAVQNQTAVMIEIGTNLLNQTAEQTRKLTDVEAQVLNQTTRLELQLLEHSLSTNKLEKQILDQTSEINKLQDKNSFLEKKVLAMEDKHIIQLQSIKEEKDQLQVLVSKQNSIIEELEKKIVTATVNNSVLQKQQHDLMETVNNLLTMMSTSNSAKDPTVAKEEQISFRDCAEVFKSGHTTNGIYTLTFPNSTEEIKAYCDMEAGGGGWTIIQRREDGSVDFQRTWKEYKVGFGNPSGEYWLGNEFVSQLTNQQRYVLKIHLKDWEGNEAYSLYEHFYLSSEELNYRIHLKGLTGTAGKISSISQPGNDFSTKDGDNDKCICKCSQMLTGGWWFDACGPSNLNGMYYPQRQNTNKFNGIKWYYWKGSGYSLKATTMMIRPADF
